Target: T1, protein A (UniProt P38507 37-477)
T1 construct: also called Protein A superantigen
Test: phage ELISA on coated protein A; signal after 80 C 10 min then 4 C 10 min as % of the untreated sample (heat/cool assay)

B1: HEL4 VH (other)
VH: QVQLLESGGGLVQPGGSLRLSCAASGFRISDEDMGWVRQAPGKGLEWVSSIYGPSGSTYYADSVKGRFTISRDNSKNTLYLQMNSLRAEDTAVYYCASALEPLSEPLGFWGQGTLVTVSS
Retained binding to protein A: 88%

— patent publication US20120207673A1 (GARVAN INSTITUTE OF MEDICAL RESEARCH, published 2012)
